Changes are numbered by the printed parent chain. Names and notes keep the numbering of the source. One block for each molecule: values may come before it. Non-standard residues stand in square brackets, D forms with d. No end group written: not given here. pS = N[C@@H](COP(=O)(O)O)C(=O)O
Tests used:
human 6His-14-3-3ζ [1] = biological target: T1, human 6His-14-3-3ζ (human, UniProt P63104 1-245); experiment: pull-down
T1 sequence (looked up): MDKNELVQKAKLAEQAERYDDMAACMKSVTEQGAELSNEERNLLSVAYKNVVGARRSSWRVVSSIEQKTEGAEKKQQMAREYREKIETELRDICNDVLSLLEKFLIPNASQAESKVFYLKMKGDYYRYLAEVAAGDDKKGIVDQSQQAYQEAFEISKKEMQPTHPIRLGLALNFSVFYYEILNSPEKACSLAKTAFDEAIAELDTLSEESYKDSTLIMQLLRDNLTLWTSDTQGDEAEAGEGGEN

human 6His-14-3-3ζ [2] = biological target: T1, human 6His-14-3-3ζ; experiment: ITC

amount pulled down relative to CT (598-910) (human 6His-14-3-3ζ [1]): 1.18 fold
Molecule: SNAP-TM-HCN1CT reporter lacking the distal 30 amino acid block with the TRIP8b-tripeptide binding site (domain or fragment)

amount pulled down relative to CT (598-910) (human 6His-14-3-3ζ [1]): 0.61 fold
Molecule: SNAP-TM-HCN1CT reporter lacking the region containing peptide C (amino acids 850-880) (domain or fragment)

amount pulled down relative to CT (598-910) (human 6His-14-3-3ζ [1]): 0.23 fold
Molecule: SNAP-TM-HCN1CT reporter also lacking the region containing peptide B (residues 790-820) (domain or fragment)

amount pulled down relative to CT_(598-910) (human 6His-14-3-3ζ [1]): 0.2 fold
B1: SNAP-TM-HCN1CT reporter truncated of residues 803-910 (domain or fragment, mouse, UniProt O88704 598-802, looked up)
chain: LNTGVFNNQENEILKQIVKHDREMVQAIPPINYPQMTALNCTSSTTTPTSRMRTQSPPVYTATSLSHSNLHSPSPSTQTPQPSAILSPCSYTTAVCSPPIQSPLATRTFHYASPTASQLSLMQQPQQQLPQSQVQQTQTQTQQQQQQQQQQQQQQQQQQQQQQQQQQQQQQQQQQQQQPQTPGSSTPKNEVHKSTQALHNTNLTK

amount pulled down relative to CT_(598-910) (human 6His-14-3-3ζ [1]): 1.39 fold
B2: SNAP-TM-HCN1CT reporter CT_(731-910) (domain or fragment, mouse, UniProt O88704 731-910, looked up)
chain: VQQTQTQTQQQQQQQQQQQQQQQQQQQQQQQQQQQQQQQQQQQQQPQTPGSSTPKNEVHKSTQALHNTNLTKEVRPLSASQPSLPHEVSTLISRPHPTVGESLASIPQPVAAVHSTGLQAGSRSTVPQRVTLFRQMSSGAIPPNRGVPPAPPPPAAVQRESPSVLNTDPDAEKPRFASNL

amount pulled down relative to CT_(731-910) (human 6His-14-3-3ζ [1]): 0.33 fold
B3: SNAP-TM-HCN1CT reporter CT_(731-910; S810A; S867A) (domain or fragment, mouse, UniProt O88704 731-910, looked up)
chain: B2 chain with S80A, S137A

amount pulled down relative to CT_(731-910) (human 6His-14-3-3ζ [1]): 0.26 fold
B4: SNAP-TM-HCN1CT reporter CT_(731-910; Δ804-814; Δ861-871) (domain or fragment, mouse, UniProt O88704 731-910, looked up)
chain: VQQTQTQTQQQQQQQQQQQQQQQQQQQQQQQQQQQQQQQQQQQQQPQTPGSSTPKNEVHKSTQALHNTNLTKEPHEVSTLISRPHPTVGESLASIPQPVAAVHSTGLQAGSRSTVPQRVPPNRGVPPAPPPPAAVQRESPSVLNTDPDAEKPRFASNL

Kd (human 6His-14-3-3ζ [2]): 16 µM
Molecule: SRMRTQ[pS]PPVY [HCN1 phospho-peptide A]

Kd (human 6His-14-3-3ζ [2]): 25 µM
Molecule: VRPLSA[pS]QPSL [HCN1 phospho-peptide B]

Kd (human 6His-14-3-3ζ [2]): 15 µM
Molecule: TLFRQM[pS]SGAI [HCN1 phospho-peptide C]

— publication doi:10.1101/2021.08.19.457009 (bioRxiv, 2021)
